Reference: the DeepSol protein solubility set

Assay: soluble on expression in E. coli; label from the status in PepcDB or PDB records

| Sequence | soluble on expression in E. coli |
| --- | --- |
| MQPDNYFILAQKPITEPSASVMGQVKNDVKKEEPKNEEKKPGDENKNPAAVGAEGAGAAEKPQDKSQKPFPEIKMPTESMKKKKNTDNEIDKRKKMKTGFYQEKSDEDDTLEKIESLKVEQSDKTKKSQKKKLTLENGEKKV | not soluble |
| KKTFLTVRGNLTFNKDKIIENDEPPVDYPWMETRGTNVNATWGFIADGLFTSQAEIEDHATQFGTVHVGDIKYRDLNGDGVIDNYDKTVIGRGDVPRIYYGFGADLQIGDFSISALFQGTGQADRYLDGICIKPFWDDEGRDNVFANIHDRWSPDDPTNQDVFYPRMYVGSDANTNNVQKSSWWVKDVSFLRLKQLNISYNIPKKLLDRCFLKSASVYLMGTNLLTFSNFKLWDPELNTSNGTAYPNVSSYSVGVKFSF | not soluble |
| MLLPWLFPQTKRNNFAAKVNSENQEKLLILRKEDASASSGQSELSLVQMGLKQVVASSFWLVFEFQHFKVGCNAARKFPVNGIANAQPQQCGTYRSHNGKLSIAIGHFCRIHQRAHTHFAIAKIAEFNPAVHCHHVVWHLFWRTHLGAIQLCV | not soluble |
| MGSLVHVKEATVITPSDQTPSSVLSLSALDSQLFLRFTIEYLLVYPPVSDPEYSLSGRLKSALSRALVPYFPFSGRVREKPDGGGGLEVNCRGQGALFLEAVSDILTCLDFQKPPRHVTSWRKLLSLHVIDVLAGAPPLVVQLTWLRDGGAALAVGVNHCVSDGIGSAEFLTLFAELSKDSLSQTELKRKHLWDRQLLMPSPIRDSLSHPEFNRVPDLCGFVNRFNAERLVPTSVVFERQKLNELKKLASRLGEFNSKHTSFEVLSAHVWRSWARSLNLPSNQVLKLLFSVNIRDRVKPSLPSGFYGNAFVVGCAQTTVKDLTEKGLSYATMLVKQAKERVGDEYVRSVVEAVSKERASPDSVGVLILSQWSRLGLEKLDFGLGKPVHVGSVCCDRYCLLLPIPEQNDAVKVMVAVPSSSVDTYENLVTSPNA | not soluble |
| MGSDKIHHHHHHMNKQEITSKIKEITETGAVCGVDVYVCLKGEEQGFYIEKMISMNSLKDRIRSIALEIINTQYLQDEVVYCDILDVIDNKKAVYVLEQSDEYKPFALLNDDSMDEVFNFDEKDIGNVLGFLFKINLNSKKLFIYQQAYVGSRLQAKNNLRIIQKDNVFEIVDKEMLKIDKRGELLILDNTILVRNVKVLQDFFGFQVFVRNQAQSVISKLEELDIIGNIATLKEYQTGEKLTISKKLMKVKNSPVLAMDKDELINKIPLVPRYKNIIHIENGKIRTNTKKDVDNLMKLLNDDYVKSELTDMEYDSTSKTLLNSESQDE | not soluble |
| MSLKHLIKNYVQKLIKTELDAIQSKSVHDNRNFIYNGEFLILESEFGLHCFPRVQLNHALSYKNPNFDLGMRHWIVNHCKHDTTYIDIGANVGTFCGIAARHITQGKIIAIEPLTEMENSIRMNVQLNNPLVEFHHFGCAIGENEGENIFEVYEFDNRVSSLYFQKNTDIADKVKNSQVLVRKLSSLDISPTNSVVIKIDAEGAEIEILNQIYEFTEKHNGIEYYICFEFAMGHIQRSNRTFDEIFNIINSKFGSKAYFIHPLSSAEHPEFNKATQDINGNICFKYVSEGHHHHHH | soluble |
| VSTLSKEQVKEIIKGNNFQSVADVSAYLRDIFKDIIQELLEAELEAKLGYAKDDVENKNTDNSRNGYSPKTIKSEFREVEIQVPRDRKGEFKPQIIPKYQRNVSGIEEKVIALYARGMSTRDISEQIEELYGFSLSPEMVSKITDRIAPEIKEWQQRPLEPIYTFVFMDEIH | soluble |
| MAHHHHHHMQRMRRIGREEEAARLVWNHVSHCSSALLRQCIRRPNLLEEVTVALCRTMHRGISGRKDSWMGHRSLAVLRSGAALRQFTPALCIPLCAAALDCGVHFATVQQHVAEIYRWDERTERWVLNMVRLIADCHSALMRVPLNCSLHSSYMRGLVQRVAYELPTLSSTCSIEVQVPSRNKLLALWTIVNDDVANGRLRQLTCQLFLDPVARSAFKEMRLADEVDNCNSGTDGGGGSKCRVPRSTLKGLLNEEVFVSVAVNCTTEHAFAIFMNAFLSTRQARDKLRYMHLVLSEMPFESTDICPRCTTETGNCEVS | not soluble |
| MSLTIKVFSPKYPTELEEFYAERIADNPLGFIQRLDLLPSISGFVQKLREHGGEFFEMREGNKLIGICGLNPINQTEAELCKFHINSAYQSQGLGQKLYESVEKYAFIKGYTKISLHVSKSQIKACNLYQKLGFVHIKEEDCVVELGEETLIFPTLFMEKILSEGHHHHHH | soluble |
| MGSDKIHHHHHHMECSGLYPRRNRSSHNQSEFQVSFMATELSALPANHPRVTFGKVGVLLVNLGTPDGTDYWPMRRYLAEFLSDKRVIEWSRLYWYPILYGIVLNKRPQKVGKAYEEIWNHERNESYLRTYTRSQGELMAAALKDFPNVVVDWAMRYGQPSIASRIDALKEQGCEKILLFPLYPQYAASTTATVNDKAFEHLMKLRWQPAIRTVPPYHDDPAYIEGLAASVKNHLATLDWEPEMLITSFHGIPQSYFKKGDPYYCHCQKTARLLREALGRTEKNFMITFQSRFGPEEWLQPYTDKTVEKLASEGIKRIAVMNPGFVSDCLETLEEIAGEAGEIFLHNGGEKFTHIPCLNDSTEGMNVLEKVVRRELQGWV | not soluble |
| AEKRIGLMLFGKGNIGSRWLELFAREQTTLSARTGFEFILAGVVDSKRSLLNYDGLDASRALAFFNDEAVEQDEESLFLWMRAHPYDDLVVLDVTASEQLADQYLDFASHGFHVISANKLAGASSSDKYRQIHDAFEKTGRHWLYNATVGAGLPVNHTVRDLIDSGDTILGLSGIFSGTLSWLFLQ | not soluble |
| MDFKDILRQLSERIEKLRDNLQTEEATKNALIMPFIQAMGYDVFNPLEVIPEFTCDIGTKKGEKIDYAIMRDNEPIILIECKHWRDTLTLADNQLLRYFHVSSAKFGMLTNGIIYRFYTDLDQANKMDEKPFLEVNMLDLRDNQIEELKQFHKSYFDVDKILSTASELKYMKELKDLILAEMNEPSEQFVRMLAKQVYDGIITAKIFEQFKDLTQKSFKSVINDLITARFKTVMDKSKEVAASEEQSQEQDDSNEPLVVTTEAEMEAYMIVKGILRKYINIDRIASRDTQSYFSVLLDDNNRKPICRFYFNTANKYLATFEEGKKEVKTLLNSLDDLFMHEKSIAKSLALYVDTEESALIVKSKE | soluble |
| MQTSDSIVIIPTYNERENIENIIRAVFGLEKTFHILIIEDGSPDGTAAIVKTLQQEFPDRLFMIERKGKLGLGTAYITGFKWALEHSYEYIFEMDADFSHNPNDLPRLYEACAVQGGDVAIGSRYVSGVNVVNWPMGRVLMSYFASKYVRIVTGLPIHDTTAGFKCYRRQVLETIDLDHIRFKGYAFQIEMKFTAYKCGFKIIEVPVIFINRELGTSKMNSSIFGEAVFGVIKLKVNSWFHTFPQKTKMNLEHHHHHH | not soluble |
| MKTFPLQSLTLAEAQQKQFALVDTICRHFPGSEFLAGGDLGLTPSLNQPRITQRVEQVLADAFHAQAAALVQGAGTGAIRAGLAALLKPGQRLLVHDAPVYPTTRVIIEQMGLTLITADFNDLSALKQVVDEQQPDAALVQHTRQQPQDSYVLADVLATLRAAGVPALTDDNYAVMKVARIGCECGANVSTFSCFKLFGPEGVGAVVGDADVISRIRATLYSGGSQIQGSQALEVLRGLVFAPLIHAVKAGVSERLLALLNGGAVAEVKSAVIANAQSKVLIVEFHQLIAARVLEEAQKRGALPYPVGAESKYEIPPLFYRLSGTFRQANPQLEHCAIRINPNRSGEETVLRILRESIASI | not soluble |
